# In the nanobody polyreactivity screen of Harvey et al. (2022):
# Assay: yeast display, Sf9 membrane polyspecificity reagent, FACS + sequencing; frameworks hold sequencing errors
# Summary of the method: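 Polyreactivity labels are assigned by the sorting gate from which each nanobody was recovered. The gates were low and high (top ~1%), set on anti-HA fluorescence for expression and streptavidin fluorescence for reagent binding. Before sorting, galactose-induced (36–48 hours) yeast display cells were stained for 1 hour at 4 °C with 10% biotinylated, detergent-solubilized Sf9 membrane reagent.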
row,Sequence,polyreactivity (PSR sort gate)
1,QVQLVESGGGLVQAGGSLRLSCAASGSIFVDYAMGWYRQAPGKERELVAAISWRGGSTYYADSVKGRFTISRDNAKNTVYLQMNSLKPEDTAVYYCAALTPFKYDYWGQGTKVTVSS,low polyreactivity
2,QVQLVESAGGLVQAGGSLRLSCADSGRLFYLYARGWYRQAPGKERELVAAISSTGRTTYADSVKGRFTISRDNAKNTVYLQMNSLKPEDTAVYYGAADFRLSGSYGGFDYWGQGTQVTVSS,low polyreactivity
3,QVQLVESGGGLVQAGGTLRLSCAASGSIFNPYAMGWYRQAPGKDRELVATITRPGRTNYADSVKGRFTISRDHAENTVYLQMNSLKPEDTAVYYCAAYTSYGVYYWGQGTQVTVSS,high polyreactivity
4,QVQLVESGGGLVQAGGSLRLSCAASGIIFASNAMGWYRQAPGKQRELVATINWTDSSTYYADSVKGRFTISRDNAKNTVYLQMNSLKPEDTAVYYCAVVDVEEHVGHWGQGTQVTVSS,low polyreactivity
5,QVQLVESGGGLVQAGGSLRLSCAASGSIFNDNVMGWYRQAPGKERELVAGISRSGTRTYYADSVKGRFTISRDNAKNTVYLQMNSLKPEDTAVYSGAAAYGQARRYNGSQYGSWGQGTQVTVSS,high polyreactivity
6,QVQLVESGGGLVQAGGSLRLSCAASGFIFGSYAMGWYRQAPGKERELVAAISDSGDSTYYADSVKGRYTISRDNAKNTVYLQMNSLKPEDTAVYYCNRGYRWRRCENYYWGQGTQVTVSS,high polyreactivity
7,QVQLVESGGGLVQAGGSLRLSCAASGRTFSLNAMGWYRQAPGKERELVAAINRGGTTYYADSVKGRFTISRDNAKNTVYLQMNSLKPEDTAVYDCAARVWGRWAGSYAWWHGYNSWGQGTQVSVSS,high polyreactivity
8,QVQLVESGGGLVQAGGSLRLSCAASGFNFNKNAMGWYRQAPGKERELVAAISGTGGSTYYADSVKVRFTISRDNAKNTVYLQMNSLKPEDTAVYFCASRRYRQFSTGGQPGYYWGQGTLVTVSS,high polyreactivity
9,QVQLVESGGGLVQAGGSLRLSCAASGSIFDWNAMGWYRQAPGKERELVAAISGTGGTKYADSVKGRFTISRDNAKNTVYLQMNSLKPEDTAVYYCAVGLVPLRDGWHFYYEFDSWGQGTQVTVSS,low polyreactivity
10,QVQLVESGGGLVQAGGSLRLSCAASGSTFLSYAMGWYRQAPGKEREMVAAISYSAGSTYYADSVKGRFTISRDNAKNTVYLQMNSLKPEDTAVYYCGAVQLVPGYVDSNDYYWGQGTQVTVSS,low polyreactivity
11,QVQLVETGGGLVQAGGSLRLSCAASGFIFRYYAMGWYRPAPGKERELVAVISSNGARTSYADSVKGRFTISRDNAKNTVYLQMNSLKPEDTADYYCNARAWSRFPPVGHDYWGQGTQVTVSS,high polyreactivity
12,QVQLVESVGGLVQAGGSLRLSSDASGRTFYSNAMGWYREAPGKERELVAGMNIGGGSTYYADSVKGRFTISRDNAKNTVYLQMYSLIPEATAVYYCAALRWGAYRHGYWGQGTQVTVSW,high polyreactivity
13,QVQLVESGGGLVQAGGSLRLSCAASGRTFLRYAMGWYRQAPRKERELVAAISVSGASTNYADSVKGRFTISRDYAKNTVYLQMNSLKPEDTAVYYCAARVADYDGVPLYRHGDYWGQGTQVTVSS,low polyreactivity
14,QVQLVESGGGLVQAGGSLRLSWAAYGNIFPHYAMGWYIQAPGKERELVAGITSSGGSTSYADSVKGRFTISRDNAKKTVYLQMNSLKPEDTAVYYCAAPRGQRVRDVYWGQGTQVTVSS,low polyreactivity
15,QVQLVESGGGLVQAGGSLRLSCAASGSILDQNTMGWYRQAPGKERELVAAITGSGGITYYADSVKGRFTISRDNAKNTVYLQMNSLKPEDTAVYYCATRTWRAYRKYNYWGQGTQVTVSS,high polyreactivity
16,QVQLVESGAGLVQAGGSLRLSCAASGLIFQSNAMVWYRQAPGKERELVAAISTAGSTNYGDSETGRFTISRDNAKKTVFLQMNSLKREDTAVYSCAAQVSTPYRYPRQILYDYWGQGTQVTVSS,low polyreactivity
17,QVQLVESGGGLVQAGGSLRLSCAASGFTFYYYAMGWYRQAPGKERELVAAISWSSGRTYYADSVKGRFTISRDNAKNTVYLQMNSLKPEDTAVYYCAADGYAGSWWYDYWGQCTQVTVSS,high polyreactivity
18,QVQLVESGGGLVQAGGSLRLSCAASGSIISYNTMGWYRQAPGKEREFVASIRRRGGSTYYADSVKGRFTISRDNAKNTVYLQMNSLKPEDTAGYYCAKANPHYVISDGVYHPRGGYWGHGTQVTVSS,low polyreactivity
19,QVQLVESGGGLVQAGGSLRLSCAASGSIFGYYAMGWSRQAPGKERELVAAISASGGSTYYADSVKGRFTISRDNAKNTVYLQMNSLKPEDTAVYYCAKVDWEQGFWVEYDHYDYWGQGTQVTVSS,high polyreactivity
20,QVQLVESGGGLDQAGGSLRLSCAASGRTFFYNAMGWYRQAPGKESEWDAAISYSGGSTYYADSVKGRFTISRDNAKNTVYLQMNSLKPEDTAVYYCAARDKTRSVRRTGMDYWGQGTQVTVSS,high polyreactivity
21,QVQLVESGGGLVQAGGSLRLSCAASGNTFYYYCMGWYRQAPGKERELVAAISSSGTSTYYADSVKGRFTISRDNAKNTVYLQMNSLKPEDTAVYYCARRTDRRTGPMYSWGQGTQVTVSS,high polyreactivity
22,QVQLVESGGGLVQAGGSLRLSCAASGLIFARNAMGWYRQAPGKETELVAAISKRGGSTYYADSVKGRFTISRDNAKNTVYLQMNSLKPDDTAVYYCNARYFRWWDMGYWGQGTQVNVSS,high polyreactivity
